# Laboratory results as given in patent publication US20030215880A1 (Scripps Research, published 2003).
# B1: Fab D13 (Fab, V domains shown)
# VH: VQLLEQSGAELVKPGASVKLSCTTSGLNIEDYYIHWVKQRPEQGLEWIGRIDPENGETLYAPEFQGKATITADTSSNTVYLQLRSLTSEDTAIYYCGRFDGNGWYLDVWGAGTTVTVSS
# VL: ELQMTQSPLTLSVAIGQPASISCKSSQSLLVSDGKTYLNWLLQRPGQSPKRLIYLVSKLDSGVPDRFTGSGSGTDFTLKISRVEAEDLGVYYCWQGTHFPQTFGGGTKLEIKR
# B2: Fab b12 (Fab, V domains shown)
# VH: QVQLVQSGAEVKKPGASVKVSCQASGYRFSNFVIHWVRQAPGQRFEWMGWINPYNGNKEFSAKFQDRVTFTADTSANTAYMELRSLRSADTAVYYCARVGPYSWDDSPQDNYYMDVWGKGTTVIVSS
# VL: EIVLTQSPGTLSLSPGERATFSCRSSHSIRSRRVAWYQHKPGQAPRLVIHGVSNRASGISDRFSGSGSGTDFTLTITRVEPEDFALYYCQVYGASSYTFGQGTKLERKR
# B3: IgG1 b12 (antibody, V domains shown)
# VH: B2 VH
# VL: B2 VL
# notes: Human IgG1
# What was measured:
# [1] = target: T1, PrP^c, cellular isoform of the mouse prion protein (mouse, UniProt P04925 23-230); experiment: immunoprecipitation from normal mouse brain homogenate, positive control
# [2] = target: T1, PrP^c, cellular isoform of the mouse …; experiment: immunoprecipitation from normal mouse brain homogenate, western blot
# T1 sequence (P04925 23-230 limits assumed): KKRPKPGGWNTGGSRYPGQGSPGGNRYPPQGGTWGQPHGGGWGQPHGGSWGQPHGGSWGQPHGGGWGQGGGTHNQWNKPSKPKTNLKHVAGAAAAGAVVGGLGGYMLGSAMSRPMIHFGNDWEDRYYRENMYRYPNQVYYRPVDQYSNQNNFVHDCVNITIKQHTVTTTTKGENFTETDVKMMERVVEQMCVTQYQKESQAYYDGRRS
Binder,binding result [1],binding result [2]
B1,binds,–
B2,–,no binding
B3,–,no binding
